Consider two molecules from US20160046703A1 (ORGENTEC DIAGNOSTIKA, published 2016).

This assay has as its target bovine serum albumin (BSA) (bovine, UniProt P02769 25-607). Put plainly: ELISA on BSA-coated microtitre plates, detection with peroxidase-labelled RGS-6xHis antibody. The method, then: For the ELISA detection of the specific β2-glycoprotein-binding activity of the scFv-CAD reaction module, serial dilutions of scFv-CAD in the indicated concentration were applied to microtitre plates coated with β2-glycoprotein and, for control purposes, with bovine serum albumin (BSA). The binding was determined using a peroxidase-labelled RGS-6×-His antibody (Qiagen, Hilden) and a tetramethylbenzidine (TMB) colour reaction by measurement of the O.D. 450.
Characterisation of the binding reaction of the CAD-IgG-CH3-Knob02 modubody to the target β2-glycoprotein. […] The binding was determined using a peroxidase-labelled RGS-6×-His antibody (Qiagen, Hilden) and a tetramethylbenzidine (TMB) colour reaction by measurement of the O.D. 450 nm.
In order to determine whether the CAD-IgG-CH3-Knob02 modubody has retained the β2-glycoprotein-binding activity of the scFv-CAD, purified CAD-IgG-CH3-Knob02 preparations were tested by immunoassays. […] The microtitre plates were washed and the binding of the CAD-IgG-CH3-Knob02 modubody was determined using a peroxidase-labelled RGS-6×-His antibody (Qiagen, Hilden) and a tetramethylbenzidine (TMB) colour reaction by measurement of the O.D. 450 nm. […] Specific binding to β2-glycoprotein was detected even at a concentration of the CAD-IgG-CH3-Knob02 modubody of 19 ng/ml.
A general note: An ELISA detects its analyte on a solid surface through an enzyme-linked reagent.

bovine serum albumin (BSA), sequence (P02769 25-607 limits assumed): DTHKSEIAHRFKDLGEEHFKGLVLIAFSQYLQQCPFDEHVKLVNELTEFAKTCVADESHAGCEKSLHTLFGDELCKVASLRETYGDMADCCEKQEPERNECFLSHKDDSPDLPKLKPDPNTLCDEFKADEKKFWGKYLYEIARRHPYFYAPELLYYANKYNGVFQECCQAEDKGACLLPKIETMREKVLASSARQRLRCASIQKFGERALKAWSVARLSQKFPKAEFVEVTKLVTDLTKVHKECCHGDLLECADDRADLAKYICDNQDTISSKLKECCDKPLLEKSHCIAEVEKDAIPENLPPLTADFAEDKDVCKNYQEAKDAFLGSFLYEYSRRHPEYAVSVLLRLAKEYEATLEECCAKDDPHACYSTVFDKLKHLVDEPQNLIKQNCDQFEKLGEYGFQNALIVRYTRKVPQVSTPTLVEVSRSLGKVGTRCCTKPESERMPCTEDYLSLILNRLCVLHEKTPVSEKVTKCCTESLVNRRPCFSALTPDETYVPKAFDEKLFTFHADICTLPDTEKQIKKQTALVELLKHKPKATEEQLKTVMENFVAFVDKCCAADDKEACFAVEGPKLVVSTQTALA

B1: scFv-CAD β2-glycoprotein-binding module (artificial protein sequence scFv-RP-CAD-P) (scFv)
scFv: LVPRGSDVLMTQTPLSLPVSLGDQASISCRSSQSIVHSNGNTYLEWYLQKPGQSPKLLIYKVSNRFSGVPDRFSGSGSGTDFTLKISRVEAEDLGVYYCFQGSHVPYTFGGGTKLEIKRTGSGSGGGGSGGGGSGGGGSSGGGGSGGGGSGGGGSGSGEVQLQQSGPELVKPGASVKISCKASGYTFTDYYMHWVRQRPGQGLEWIGEIYPGSGNTSYNEKFRGKATLTADKSSSTAYMQLSSLTSEDSAVYFCARGTLDYTMDYWGQGTSVTVSS
notes: Expressed in E. coli from pQE-80L as a 30 kDa protein; also called CAD-scFv; scFV-CAD reaction module; not shown: RGS-6xHis tag from expression vector pQE-80L (detected with anti-RGS-6xHis antib)
Take B1: the binding result was “no binding (tested: 0.019-10 µg/ml)”.

B2: single-chain CAD-IgG-CH3-Knob02 modubody (designed binder)
chain: LVPRGSDVLMTQTPLSLPVSLGDQASISCRSSQSIVHSNGNTYLEWYLQKPGQSPKLLIYKVSNRFSGVPDRFSGSGSGTDFTLKISRVEAEDLGVYYCFQGSHVPYTFGGGTKLEIKRTGSGSGGGGSGGGGSGGGGSSGGGGSGGGGSGGGGSGSGEVQLQQSGPELVKPGASVKISCKASGYTFTDYYMHWVRQRPGQGLEWIGEIYPGSGNTSYNEKFRGKATLTADKSSSTAYMQLSSLTSEDSAVYFCARGTLDYTMDYWGQGTSVTVSSGSGGGGSGGGGSGGGGSSGGGGSGGGGSGGGGSGSGEPQVYTLPPSREEMTKNQVSLYCLVKGFYPSDIAVEWESNGQPENNYKTYPPVLDSDGSFYLYSKLTVDKSRWQQGNVFSCSVMHEALHNHYTQKSLSL
notes: Domain order is VL-linker-VH-linker-IgG-CH3-Knob02, 44 kDa, made in E. coli; also called CAD-IgG-CH3-Knob32 (as misprinted once); not shown: RGS-6xHis tag from vector pQE-80L
On to B2, for which the binding result is on record as “no binding (tested: 0.019-10 µg/ml)”.
